Columns and labels:
[1] = biological target: the molecule itself; assay: SEC-MALS; Superdex 200 Increase column in SEC buffer, 40-150 µg of protein applied
PqsE-E187R = biological target: T1, PqsE-E187R (Pseudomonas aeruginosa, UniProt P20581, E187R); assay: MST; PqsE diluted 1:1 from 10 µM, RhlR-ATTO488 at 20 nM; 50 mM Tris pH 8.0, 300 mM NaCl, 5% glycerol, 50 µM mBTL, 0.05% Tween; 25 °C; conditions: both partners purified
T1 construct: source: E. coli BL21 CodonPlus (DE3), purified; not shown: His6, N-terminal, cleaved

Binder	stoichiometry N [1]	Kd (PqsE-E187R)
RhlR purified in the presence of mBTL (natural protein, RhlR, LuxR-type transcription factor of P. aeruginosa PA14/PAO1, 241 residues; also called RhlR:mBTL; non-tagged RhlR; source: E. coli BL21 CodonPlus (DE3), purified in the presence of mBTL) MRNDGGFLLWWDGLRSEMQPIHDSQGVFAVLEKEVRRLGFDYYAYGVRHTIPFTRPKTEVHGTYPKAWLERYQMQNYGAVDPAILNGLRSSEMVVWSDSLFDQSRMLWNEARDWGLCVGATLPIRAPNNLLSVLSVARDQQNISSFEREEIRLRLRCMIELLTQKLTDLEHPMLMSNPVCLSHREREILQWTADGKSSGEIAIILSISESTVNFHHKNIQKKFDAPNKTLAAAYAAALGLI	2	–
RhlR-ATTO488 (natural protein, conjugated with ATTO488-maleimid (site not stated), RhlR, LuxR-type transcription factor of P. aeruginosa PA14/PAO1, 241 residues; m4 after labelling; 'non-tagged'; holds mBTL) MRNDGGFLLWWDGLRSEMQPIHDSQGVFAVLEKEVRRLGFDYYAYGVRHTIPFTRPKTEVHGTYPKAWLERYQMQNYGAVDPAILNGLRSSEMVVWSDSLFDQSRMLWNEARDWGLCVGATLPIRAPNNLLSVLSVARDQQNISSFEREEIRLRLRCMIELLTQKLTDLEHPMLMSNPVCLSHREREILQWTADGKSSGEIAIILSISESTVNFHHKNIQKKFDAPNKTLAAAYAAALGLI	–	13.8 ± 3.9 µM
PqsE (purified, affinity tag removed) (enzyme, not shown: His6, N-terminal, cleaved) MLRLSAPGQLDDDLCLLGDVQVPVFLLRLGEASWALVEGGISRDAELVWADLCRWVADPSQVHYWLITHKHYDHCGLLPYLCPRLPNVQVLASERTCQAWKSESAVRVVERLNRQLLRAEQRLPEACAWDALPVRAVADGEWLELGPRHRLQVIEAHGHSDDHVVFYDVRRRRLFCGDALGEFDEAEGVWRPLVFDDMEAYLESLERLQRLPTLLQLIPGHGGLLRGRLAADGAESAYTECLRLCRRLLWRQSMGESLDELSEELHRAWGGQSVDFLPGELHLGSMRRMLEILSRQALPLD	2	–

Source: publication PMC9715718 (Nature Communications, 2022)
